Assay results published in patent CN114591432A (NANJING FUJIEKANG BIOTECHNOLOGY CO LTD, dated 2022).

B1: 单域抗体4A5 (VHH)
VHH: ESGGGLVQPGGSLRLSCTVSGLTFNDYALAWFRQAPGKDREGVSCISWSGGSTAYADSVKGRFTISRDNAKNTVYLQMNSLKPEDTAMYYCAAPAFRYCSGPWSSSHGEYIYWGQGTQVTVSS
notes: Crude extract from E. coli TG1 clones (pMECS), detected through an HA tag
B2: 单域抗体1E9 (VHH)
VHH: ESGGGSVQSGGSLRLSCTVFGATFNGHAMAWFRQAPGKDREGVSCISMSGRSTAYADSVKGRFTISRDNAKNTLYLQMNGLKPEDTAMYYCAAAAFGYCSGPWSSSHGEYMYWGQGTQVTVSS
notes: as for B1
B3: 单域抗体1H10 (VHH)
VHH: ESGGGLVQAGGSLRLSCTVFGATFNGHAMAWFRQAPGKDREGVSCISMSGRSTAYADSVKGRFTISRDNAKNTLYLQMNGLKPEDTAMYYCAAAAFGYCSGPWSSSHGEYMYWGQGTQVTVSS
notes: as for B1
B4: 单域抗体2B1 (VHH)
VHH: ESGGGSVQSGGSLRLSCQASGYTSSSYCMGWFRQVPGKEREGVASIDSGGFTHTANSVKGRFTISQDNAKNTLYLQMNSLKPEDTAMYYCAATPREFGWCSLSGHFNYWGQGTQVTVSS
notes: as for B1
B5: 单域抗体2B8 (VHH)
VHH: ESGGGSVQAGGSLRLSCAASGYTFSTYCMAWFRQAPGEEREGVAYIDTDGSTGHADSVRGRFTVSRDNAKNTLYLQMNSLKPEDTAIYYCAARWTRLCGWWSYPTGSWGQGTQVTVSS
notes: as for B1

target: T1, 人源TNFα重组胞外结构域蛋白 (human, UniProt P01375 57-233); experiment: ELISA of crude VHH extract on coated TNFα, anti-HA-HRP; positive if OD above 5 times the control well
T1 construct: range 57-233; No purification tag is described; also called 人源重组TNFα蛋白; TNFα蛋白
T1 sequence (P01375 57-233 limits assumed): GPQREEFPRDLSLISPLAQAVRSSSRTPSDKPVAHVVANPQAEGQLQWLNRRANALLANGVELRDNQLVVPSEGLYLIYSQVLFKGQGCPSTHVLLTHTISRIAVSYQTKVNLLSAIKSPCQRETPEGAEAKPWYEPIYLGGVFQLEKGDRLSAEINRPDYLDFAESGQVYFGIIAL

Binding result, binds:
B1, B2, B3, B4, B5
